From patent publication US20230295259A1 (Protagonist Therapeutics, Inc., priority 2020, published 2023)
Starred links: 1 amine or outer side, 2 acyl side, 3 side chain; linkers in the order of their positions; H or OH if unused. Positions of bridges follow the written chain, without caps; N, C: chain ends. Non-standard residues stand in square brackets, D forms with d. Residues, ends and D or L forms follow the SMILES beside them. Groups on a side chain read outwards from the residue. Primed or numbered codes have the meaning given here. *: point of attachment. 2Peg11′ = —[C(O)—CH2—CH2—(OCH2CH2)12—NH]— (PEG12 unit); PEG12 = NCCOCCOCCOCCOCCOCCOCCOCCOCCOCCOCCOCCOCCC(=O)O; X11 = NCCCC[C@@H](N[*:2])C(=O)C[C@@H](CS[*:1])C(N)=O; C18 diacid = O=C(O)CCCCCCCCCCCCCCCCC(=O)*; Dip = N[C@H](C(=O)O)C(c1ccccc1)c1ccccc1; X10 = CCC(=O)CC[C@H](N[*:1])C(=O)[*:2]; Palmitoyl = CCCCCCCCCCCCCCCC(=O)*; β3hF = N[C@H](CC(=O)O)Cc1ccccc1; hLeu = CC(C)CC[C@H](N)C(=O)O; Isovaleryl = CC(C)CC(=O)*; Dap = NC[C@H](N)C(=O)O; AEEA = NCCOCCOCC(=O)O; Npc = nipecotic acid; Ahx = NCCCCCC(=O)O

T1: human ferroportin (SLC40A1) fused in frame with GFP, stably expressed in HEK293 cells (human, UniProt Q9NP59 1-571)
T1 sequence (looked up): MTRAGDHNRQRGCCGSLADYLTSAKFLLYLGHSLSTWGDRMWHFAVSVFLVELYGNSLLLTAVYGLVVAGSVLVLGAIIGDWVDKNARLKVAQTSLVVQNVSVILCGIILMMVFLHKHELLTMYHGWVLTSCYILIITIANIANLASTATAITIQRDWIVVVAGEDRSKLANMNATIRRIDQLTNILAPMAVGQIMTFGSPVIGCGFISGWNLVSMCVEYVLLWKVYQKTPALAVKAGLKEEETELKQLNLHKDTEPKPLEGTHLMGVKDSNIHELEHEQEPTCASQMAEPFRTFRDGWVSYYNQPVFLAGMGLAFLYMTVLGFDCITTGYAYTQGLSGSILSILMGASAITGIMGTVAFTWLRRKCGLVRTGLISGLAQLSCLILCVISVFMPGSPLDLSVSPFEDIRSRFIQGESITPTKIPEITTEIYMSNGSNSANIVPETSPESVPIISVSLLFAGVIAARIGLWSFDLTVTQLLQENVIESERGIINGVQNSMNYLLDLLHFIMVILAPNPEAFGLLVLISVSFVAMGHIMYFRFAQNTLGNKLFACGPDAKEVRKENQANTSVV

T2: human ferroportin (Homo sapiens, UniProt Q9NP59)
T2 construct: expressed in transfected cells
T2 sequence (Q9NP59 1-571): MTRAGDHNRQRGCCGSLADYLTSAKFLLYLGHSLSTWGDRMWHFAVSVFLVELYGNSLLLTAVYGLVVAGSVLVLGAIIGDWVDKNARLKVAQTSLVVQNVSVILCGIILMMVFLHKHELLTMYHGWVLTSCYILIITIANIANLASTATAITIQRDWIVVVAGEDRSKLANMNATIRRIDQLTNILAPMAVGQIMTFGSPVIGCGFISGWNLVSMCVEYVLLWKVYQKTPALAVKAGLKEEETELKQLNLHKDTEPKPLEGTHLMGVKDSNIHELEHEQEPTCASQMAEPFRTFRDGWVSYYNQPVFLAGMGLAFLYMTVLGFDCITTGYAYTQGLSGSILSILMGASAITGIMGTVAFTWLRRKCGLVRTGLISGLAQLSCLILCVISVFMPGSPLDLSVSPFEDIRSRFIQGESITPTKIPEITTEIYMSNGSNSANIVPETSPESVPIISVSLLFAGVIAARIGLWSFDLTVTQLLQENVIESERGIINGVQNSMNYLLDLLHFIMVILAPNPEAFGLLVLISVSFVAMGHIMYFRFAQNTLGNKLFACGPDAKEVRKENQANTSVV


Tested on: LAD2 cells
Test: not given
Format: cell-based, human
Conditions: LAD2 mast cells, β-hexosaminidase release, 30 minutes incubation; read-out: EC50: LAD2
From the text: In anaphylactoid reactions, the main mechanism involves the direct stimulation of mast cells or basophils, leading to the release of anaphylactic mediators such as histamine and β-hexosaminidase. A recent study by McNeil et al. (McNeil B D et al., 2015) reported that MrgprX2, a specific membrane receptor on human mast cells, induces anaphylactoid reactions. The LAD2 (Laboratory of Allergic Diseases 2) human mast cell line, derived from human mast cell sarcoma/leukemia (Kirshenbaum et al., 2003), is commonly employed to study anaphylactoid reactions, because its biological properties are identical to those of primary human mast cells, including the overexpression of the MrgprX2 receptor and sensitivity towards degranulating peptides (Kulka et al., 2008). The release of anaphylactic mediators such as f-hexosaminidase, is assessed by fluorometric quantification.
On the day of the assay, serial dilutions of compounds were added to LAD2 cells plated at 20000 cells/well in a 96-well plate. After incubation for 30 minutes, the amount of β-hexosaminidase released into the supernatants and in cell lysates was quantified using the fluorogenic substrate 4-methylumbelliferyl-N-acetyl-b-D-glucosaminide. Dose-response curves were generated by plotting the % of β-hexosaminidase release (y-axis) against the concentrations of peptides tested (x-axis). […]. (Table 2D).

EC50 | Molecule
> 12500 nM | Isovaleric Acid-E-T-H-[Dpa]-P-[Cys]-I-[Lys(2Peg11′_Palm)]-[bhPhe]-[Lys(2Peg20K)]-R-[Cys]-NH2 [Compound 47]

Molecular target: T1, human ferroportin (SLC40A1) fused in …
Test: cell-based or functional assay
Conditions: not given

Molecule | FPN EC50
Isovaleryl-ETH[Dip]PCIK(Ac)[β3hF]K(2Peg20K)RC-NH2 (disulfide 6-12 (inferred)) [Compound 46] | > 3000 nM
XETHXPCIXXXC (Isovaleric Acid-E-T-H-[Dpa]-P-[Cys]-I-[Lys(1Peg2_1Peg2_Ahx_C18_Diacid)]-[bhPhe]-[(D)Lys]-[Cys]-NH2) [Compound 12] | 9.81 nM
XETHXPCIXXXXC (Isovaleric Acid-E-T-H-[Dpa]-P-[Cys]-I-[(D)Lys]-[Dpa]-[Lys(2Peg11′_Palm)]-[(D)Lys]-[Cys]-NH2) [Compound 2] | 5 nM
Isovaleryl-ETH[Dip]PCI[dK][β3hF]K([PEG12-Palmitoyl])RC-NH2 (disulfide 6-12 (inferred)) [Compound 27] | 20 nM
Isovaleryl-ETH[Dip][Npc]CI[dK][β3hF]K([Ahx-Palmitoyl])[dK]C-NH2 (disulfide 6-12 (inferred)) [Compound 5] | 2.88 nM
Isovaleryl-ETH[Dip]PCIK(Ac)[β3hF]KRC-NH2 (disulfide 6-12 (inferred)) [Compound 42] | > 3000 nM
Isovaleryl-ETH[Dip]PCIK([2Peg11′-Palmitoyl])[β3hF]K(2Peg20K)RC-NH2 (disulfide 6-12 (inferred)) [Compound 47] | 58.2 nM
Isovaleryl-ETH[Dip]PCIK(2Peg20K)[β3hF]K([PEG12-Palmitoyl])RC-NH2 (disulfide 6-12 (inferred)) [Compound 50] | 3.31 nM

Continued, values first:

FPN EC50 | Molecule
90 nM | XETHXPCIXXXCX (Isovaleric Acid-E-T-H-[Dpa]-P-[Cys]-I-[Lys(Ac)]-[bhPhe]-[(D)Lys(Ac)]-[Cys]-[(D)Glu]-NH2) [Compound 123]
103 nM | Isovaleryl-ETH[Dip]PCIK([Ahx-PEG20K])[β3hF]RC-NH2 (disulfide 6-11 (inferred)) [Compound 51]
8.06 nM | XETHXPCIXXXC (Isovaleric Acid-E-T-H-[Dpa]-P-[Cys]-I-[Lys(2Peg11′_C18_Diacid)]-[bhPhe]-[(D)Lys]-[Cys]-NH2) [Compound 113]

Molecular target: T2, human ferroportin
Test: FPN activity assay: internalization/degradation of ferroportin-GFP in stably transfected HEK293 cells (decrease in GFP fluorescence)
Format: cell-based
Conditions: Table 2A; HEK293 cells expressing human ferroportin-GFP, at least 18 hours incubation
Description: Following internalization, the ferroportin protein is degraded.
A retro inverse peptide is a peptide with a reversed sequence in all D amino acids. An example is that Hy-Glu-Thr-His-NH2 becomes Hy-DHis-DThr-DGlu-NH2. The EC50 of these reference compounds for ferroportin internalization/degradation was determined according to the FPN activity assay described above. These peptides served as control standards.
These values were determined as described herein.

EC50 | Molecule
58.2 nM | Isovaleric Acid-E-T-H-[Dpa]-P-[Cys]-I-[Lys(2Peg11′_Palm)]-[bhPhe]-[Lys(2Peg20K)]-R-[Cys]-NH2 [Compound 47]

Same assay, conditions: Table 2B; HEK293 cells expressing human ferroportin-GFP, at least 18 hours incubation

EC50 | Molecule
1780 nM | Isovaleric Acid-E-T-H-[Dpa]-P—C—I-[Lys(PEG12_Palm)]-[bhPhe]-[Lys(PEG40KB)]-R—C—NH2 [Compound 295]
1080 nM | Isovaleric Acid-E-T-H-[Dpa]-P—C—I-[Lys(PEG40KB)]-[bhPhe]-[Lys(PEG12_Palm)]-R—C—NH2 [Compound 296]
32.6 nM | Isovaleric Acid-E-T-H-[Dpa]-P—C—I-[Lys(Ahx_Palm)]-[bhPhe]-[(D)Lys(PEG20K)]-C—NH2 [Compound 312]

Same assay, conditions: Table 2D (Illustrative Monomer Hepcidin Analogues); ferroportin-GFP HEK293 cells; read-out: IC50: FPN internalisation

DC50 | Molecule
20.6 nM | CCC(=O)CC[C@H](NC(=O)CC(C)C)C(=O)N[C@H](C(=O)N[C@@H](Cc1cnc[nH]1)C(=O)N[C@H](C(=O)N1CCC[C@H]1C(=O)N[C@H]1CSSC[C@@H](C(N)=O)CC(=O)[C@@H](CCCCN)NC(=O)[C@H](CCC(C)C)NC(=O)[C@H](CCCCNC(=O)COCCOCCNC(=O)COCCOCCNC(=O)[C@H](CN)NC(=O)CCCCCCCCCCCCCCCCC(=O)O)NC(=O)[C@H]([C@@H](C)CC)NC1=O)C(c1ccccc1)c1ccccc1)[C@@H](C)O [Compound 509] (Isovaleryl-[X10]TH[Dip]PCIK([AEEA-AEEA-Dap-C18 diacid])[hLeu]; linker 6-C via X11)
14.3 nM | CC[C@H](C)[C@@H]1NC(=O)[C@@H](NC(=O)[C@@H]2CCCN2C(=O)[C@@H](NC(=O)[C@H](Cc2ccncc2)NC(=O)[C@@H](NC(=O)[C@H](CCC(=O)OC)NC(=O)CC(C)C)[C@@H](C)O)C(c2ccccc2)c2ccccc2)CSSC[C@@H](C(N)=O)NC(=O)[C@@H](CCCCN)NC(=O)C[C@H](Cc2ccccc2)NC(=O)[C@H](CCCCNC(=O)COCCOCCNC(=O)COCCOCCNC(=O)[C@H](CN)NC(=O)CCCCCCCCCCCCCCCCC(=O)O)NC1=O [Compound 499]
